Biological target: T1, ^35S-IRF3, Q14653
T1 chain: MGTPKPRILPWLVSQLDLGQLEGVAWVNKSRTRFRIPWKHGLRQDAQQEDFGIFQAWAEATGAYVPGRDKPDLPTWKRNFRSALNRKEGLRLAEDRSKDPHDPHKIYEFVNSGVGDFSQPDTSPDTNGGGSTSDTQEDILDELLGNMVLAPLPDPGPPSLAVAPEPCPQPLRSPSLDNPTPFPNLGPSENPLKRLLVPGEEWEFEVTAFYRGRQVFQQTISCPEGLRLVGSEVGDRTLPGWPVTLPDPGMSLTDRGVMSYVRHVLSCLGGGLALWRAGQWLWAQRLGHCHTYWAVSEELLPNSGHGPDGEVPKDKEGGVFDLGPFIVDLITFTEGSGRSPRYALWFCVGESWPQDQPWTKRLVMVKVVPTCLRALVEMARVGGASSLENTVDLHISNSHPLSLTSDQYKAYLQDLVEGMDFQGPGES
Test: native gel or EMSA
Conditions: remark: other sources report otherwise

stoichiometry N: 2
B1: ^35S-IRF3, Q14653 1-427 (natural protein)
chain: T1 chain
modifications: here or on the partner: 35S label; 35S label

Reference: paper PMC6778039
